Reference: publication PMC11650718, “α-Amino-β-carboxymuconate-ε-semialdehyde decarboxylase catalyzes enol/keto tautomerization of oxaloacetate” (The Journal of Biological Chemistry, 2024)

B1: α-amino-β-carboxymuconate-ε-semialdehyde decarboxylase (ACMSD) from Pseudomonas fluorescens KU-7 (enzyme)
chain: MKKPRIDMHSHFFPRISEQEAAKFDANHAPWLQVSAKGDTGSIMMGKNNFRPVYQALWDPAFRIEEMDAQGVDVQVTCATPVMFGYTWEANKAAQWAERMNDFALEFAAHNPQRIKVLAQVPLQDLDLACKEASRAVAAGHLGIQIGNHLGDKDLDDATLEAFLTHCANEDIPILVHPWDMMGGQRMKKWMLPWLVAMPAETQLAILSLILSGAFERIPKSLKICFGHGGGSFAFLLGRVDNAWRHRDIVREDCPRPPSEYVDRFFVDSAVFNPGALELLVSVMGEDRVMLGSDYPFPLGEQKIGGLVLSSNLGESAKDKIISGNASKFFNINV
notes: ACMSD from Pseudomonas fluorescens KU-7, UniProt Q83V25; Zinc-dependent metalloenzyme; also called pfACMSD; wild-type ACMSD; source: stored in 25 mM HEPES pH 7.0

Columns and labels:
O=C(O)CC(=O)C(=O)O = tested on: T1, O=C(O)CC(=O)C(=O)O; assay: purified protein; type: biochemical, Pseudomonas fluorescens; conditions: HEPES pH 7.0, keto to enol form
T1 construct: recombinant from pET16b-ACMSD, purified; Zn-dependent homodimer with Arg239* from adjacent subunit

purified protein = substrate: O=C(O)CC(=O)C(=O)O; assay: purified protein; conditions: HEPES pH 7.0, Zn enzyme, keto to enol form
[1] = target: the molecule itself; assay: crystal structure; malonate-bound wild-type ACMSD, 10 mg/ml (270 uM); 50 mM malonate in place of Tacsimate, 0.1 M sodium citrate tribasic pH 5.6, 12% (w/v) PEG 3350; 2.21 A

Molecule | Km (O=C(O)CC(=O)C(=O)O) | kcat (O=C(O)CC(=O)C(=O)O) | kcat/Km (O=C(O)CC(=O)C(=O)O) | Km (purified protein) | kcat (purified protein) | kcat/Km (purified protein) | binding result [1]
ACMSD (pfACMSD) (Pseudomonas fluorescens; W194A) | 800 ± 80 µM | 4.18 ± 0.25 s⁻¹ | 5200 M⁻¹ s⁻¹ |  |  |  | 
ACMSD (pfACMSD) (Pseudomonas fluorescens; H228A) | 570 ± 130 µM | 2.98 ± 0.35 s⁻¹ | 5200 M⁻¹ s⁻¹ |  |  |  | 
B1 |  |  |  | 1120 ± 140 µM | 6.51 s⁻¹ | 5800 M⁻¹ s⁻¹ | binds
